According to patent publication US20240400613A1 (SUN PHARMACEUTICAL INDUSTRIES, published 2024):
Starred links: 1 amine or outer side, 2 acyl side, 3 side chain; linkers in the order of their positions; H or OH if unused. Non-standard residues stand in square brackets, D forms with d. Groups on a side chain read outwards from the residue. No end group written: not given here. *: point of attachment. C20 diacid = O=C(O)CCCCCCCCCCCCCCCCCCC(=O)*; γGlu = O=C(O)[C@H](CCC(=O)[*:2])N[*:1]; Nle = CCCC[C@H](N)C(=O)O; Nva = CCC[C@H](N)C(=O)O; AEEA = NCCOCCOCC(=O)O; Aib = CC(C)(N)C(=O)O

T1: GIPR (UniProt P48546 22-466, limits assumed)
T1 sequence (looked up): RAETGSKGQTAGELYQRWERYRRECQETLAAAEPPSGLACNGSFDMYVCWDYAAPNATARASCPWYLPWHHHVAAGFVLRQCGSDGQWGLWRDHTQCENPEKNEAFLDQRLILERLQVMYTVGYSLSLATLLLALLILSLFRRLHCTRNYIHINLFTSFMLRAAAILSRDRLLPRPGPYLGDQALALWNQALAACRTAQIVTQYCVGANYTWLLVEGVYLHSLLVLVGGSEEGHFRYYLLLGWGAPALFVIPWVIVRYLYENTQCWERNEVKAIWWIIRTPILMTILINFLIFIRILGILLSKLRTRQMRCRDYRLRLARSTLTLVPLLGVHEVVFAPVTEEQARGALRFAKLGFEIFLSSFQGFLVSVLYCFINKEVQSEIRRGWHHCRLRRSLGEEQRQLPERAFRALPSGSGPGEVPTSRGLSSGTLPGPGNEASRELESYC

B1: Compound 1 (peptide)
peptide: Y[Aib]EGTFTSDYSI[Nva]LDKIAQK([AEEA-Aib-γGlu-C20 diacid])AFVQWLIAGGPSSGAPPPS-NH2
modifications: N-terminus assumed
SMILES: CCC[C@H](NC(=O)[C@@H](NC(=O)[C@H](CO)NC(=O)[C@H](Cc1ccc(O)cc1)NC(=O)[C@H](CC(=O)O)NC(=O)[C@H](CO)NC(=O)[C@@H](NC(=O)[C@H](Cc1ccccc1)NC(=O)[C@@H](NC(=O)CNC(=O)[C@H](CCC(=O)O)NC(=O)C(C)(C)NC(=O)[C@@H](N)Cc1ccc(O)cc1)[C@@H](C)O)[C@@H](C)O)[C@@H](C)CC)C(=O)N[C@@H](CC(C)C)C(=O)N[C@@H](CC(=O)O)C(=O)N[C@@H](CCCCN)C(=O)N[C@H](C(=O)N[C@@H](C)C(=O)N[C@@H](CCC(N)=O)C(=O)N[C@@H](CCCCNC(=O)COCCOCCNC(=O)C(C)(C)NC(=O)CC[C@H](NC(=O)CCCCCCCCCCCCCCCCCCC(=O)O)C(=O)O)C(=O)N[C@@H](C)C(=O)N[C@@H](Cc1ccccc1)C(=O)N[C@H](C(=O)N[C@@H](CCC(N)=O)C(=O)N[C@@H](Cc1c[nH]c2ccccc12)C(=O)N[C@@H](CC(C)C)C(=O)N[C@H](C(=O)N[C@@H](C)C(=O)NCC(=O)NCC(=O)N1CCC[C@H]1C(=O)N[C@@H](CO)C(=O)N[C@@H](CO)C(=O)NCC(=O)N[C@@H](C)C(=O)N1CCC[C@H]1C(=O)N1CCC[C@H]1C(=O)N1CCC[C@H]1C(=O)N[C@@H](CO)C(N)=O)[C@@H](C)CC)C(C)C)[C@@H](C)CC
B2: Compound 11 (peptide)
peptide: Y[Aib]EGTFTSDYSI[Nle]LDKIAQK([AEEA-Aib-γGlu-C20 diacid])AFVQWLIAGGPSSGAPPPS-NH2
modifications: N-terminus assumed
SMILES: CCCC[C@H](NC(=O)[C@@H](NC(=O)[C@H](CO)NC(=O)[C@H](Cc1ccc(O)cc1)NC(=O)[C@H](CC(=O)O)NC(=O)[C@H](CO)NC(=O)[C@@H](NC(=O)[C@H](Cc1ccccc1)NC(=O)[C@@H](NC(=O)CNC(=O)[C@H](CCC(=O)O)NC(=O)C(C)(C)NC(=O)[C@@H](N)Cc1ccc(O)cc1)[C@@H](C)O)[C@@H](C)O)[C@@H](C)CC)C(=O)N[C@@H](CC(C)C)C(=O)N[C@@H](CC(=O)O)C(=O)N[C@@H](CCCCN)C(=O)N[C@H](C(=O)N[C@@H](C)C(=O)N[C@@H](CCC(N)=O)C(=O)N[C@@H](CCCCNC(=O)COCCOCCNC(=O)C(C)(C)NC(=O)CC[C@H](NC(=O)CCCCCCCCCCCCCCCCCCC(=O)O)C(=O)O)C(=O)N[C@@H](C)C(=O)N[C@@H](Cc1ccccc1)C(=O)N[C@H](C(=O)N[C@@H](CCC(N)=O)C(=O)N[C@@H](Cc1c[nH]c2ccccc12)C(=O)N[C@@H](CC(C)C)C(=O)N[C@H](C(=O)N[C@@H](C)C(=O)NCC(=O)NCC(=O)N1CCC[C@H]1C(=O)N[C@@H](CO)C(=O)N[C@@H](CO)C(=O)NCC(=O)N[C@@H](C)C(=O)N1CCC[C@H]1C(=O)N1CCC[C@H]1C(=O)N1CCC[C@H]1C(=O)N[C@@H](CO)C(N)=O)[C@@H](C)CC)C(C)C)[C@@H](C)CC
B3: Compound 10 (peptide)
peptide: YXEGTFTSDYSIXLDKIAQKAFVQWLIAGGPSSGAPPPS
modifications: Aib at position 2; L-homoalanine (2-aminobutyric acid) at position 13; Lys 20 side chain (epsilon amino) acylated with Moiety A; C-terminal amide (Ser-NH2)
B4: Compound 3 (peptide)
peptide: Y[Aib]EGTFTSDYSILLDKIAQK([AEEA-Aib-γGlu-C20 diacid])AFVQWLIAGGPSSGAPPPS-NH2
modifications: N-terminus assumed
SMILES: CC[C@H](C)[C@H](NC(=O)[C@H](CCCCN)NC(=O)[C@H](CC(=O)O)NC(=O)[C@H](CC(C)C)NC(=O)[C@H](CC(C)C)NC(=O)[C@@H](NC(=O)[C@H](CO)NC(=O)[C@H](Cc1ccc(O)cc1)NC(=O)[C@H](CC(=O)O)NC(=O)[C@H](CO)NC(=O)[C@@H](NC(=O)[C@H](Cc1ccccc1)NC(=O)[C@@H](NC(=O)CNC(=O)[C@H](CCC(=O)O)NC(=O)C(C)(C)NC(=O)[C@@H](N)Cc1ccc(O)cc1)[C@@H](C)O)[C@@H](C)O)[C@@H](C)CC)C(=O)N[C@@H](C)C(=O)N[C@@H](CCC(N)=O)C(=O)N[C@@H](CCCCNC(=O)COCCOCCNC(=O)C(C)(C)NC(=O)CC[C@H](NC(=O)CCCCCCCCCCCCCCCCCCC(=O)O)C(=O)O)C(=O)N[C@@H](C)C(=O)N[C@@H](Cc1ccccc1)C(=O)N[C@H](C(=O)N[C@@H](CCC(N)=O)C(=O)N[C@@H](Cc1c[nH]c2ccccc12)C(=O)N[C@@H](CC(C)C)C(=O)N[C@H](C(=O)N[C@@H](C)C(=O)NCC(=O)NCC(=O)N1CCC[C@H]1C(=O)N[C@@H](CO)C(=O)N[C@@H](CO)C(=O)NCC(=O)N[C@@H](C)C(=O)N1CCC[C@H]1C(=O)N1CCC[C@H]1C(=O)N1CCC[C@H]1C(=O)N[C@@H](CO)C(N)=O)[C@@H](C)CC)C(C)C
B5: Compound 6 (peptide)
peptide: Y[Aib]EGTFTSDYSI[Nva]LDKIAQK([AEEA-AEEA-γGlu-C20 diacid])AFVQWLIAGGPSSGAPPPS-NH2
modifications: N-terminus assumed
SMILES: CCC[C@H](NC(=O)[C@@H](NC(=O)[C@H](CO)NC(=O)[C@H](Cc1ccc(O)cc1)NC(=O)[C@H](CC(=O)O)NC(=O)[C@H](CO)NC(=O)[C@@H](NC(=O)[C@H](Cc1ccccc1)NC(=O)[C@@H](NC(=O)CNC(=O)[C@H](CCC(=O)O)NC(=O)C(C)(C)NC(=O)[C@@H](N)Cc1ccc(O)cc1)[C@@H](C)O)[C@@H](C)O)[C@@H](C)CC)C(=O)N[C@@H](CC(C)C)C(=O)N[C@@H](CC(=O)O)C(=O)N[C@@H](CCCCN)C(=O)N[C@H](C(=O)N[C@@H](C)C(=O)N[C@@H](CCC(N)=O)C(=O)N[C@@H](CCCCNC(=O)COCCOCCNC(=O)COCCOCCNC(=O)CC[C@H](NC(=O)CCCCCCCCCCCCCCCCCCC(=O)O)C(=O)O)C(=O)N[C@@H](C)C(=O)N[C@@H](Cc1ccccc1)C(=O)N[C@H](C(=O)N[C@@H](CCC(N)=O)C(=O)N[C@@H](Cc1c[nH]c2ccccc12)C(=O)N[C@@H](CC(C)C)C(=O)N[C@H](C(=O)N[C@@H](C)C(=O)NCC(=O)NCC(=O)N1CCC[C@H]1C(=O)N[C@@H](CO)C(=O)N[C@@H](CO)C(=O)NCC(=O)N[C@@H](C)C(=O)N1CCC[C@H]1C(=O)N1CCC[C@H]1C(=O)N1CCC[C@H]1C(=O)N[C@@H](CO)C(N)=O)[C@@H](C)CC)C(C)C)[C@@H](C)CC

Tests used:
GIPR = target: T1, GIPR; assay: cell-based or functional assay
GLP-1R = GLP-1R (UniProt P43220 24-463, limits assumed); assay: cell-based or functional assay

Molecule	Half effective Concentration (EC50), cellular cAMP assay on GIPR-expressing cells (GIPR)	Half effective Concentration (EC50), cellular cAMP assay on GLP-1R-expressing cells (GLP-1R)
Tirzepatide (peptide)	1900 pM	6800 pM
B1	27.6 pM	12.4 pM
B2	6.4 pM	5.9 pM
B3	7.3 pM	3.6 pM
B4	12.8 pM	32.7 pM
B5	17.7 pM	19.6 pM
